Results: PMC10681728, “Rad53 regulates the lifetime of Rdh54 at homologous recombination intermediates” (Nucleic Acids Research, 2023)
Where “and” joins values, the source holds several entries; their conditions need not be identical. Equal entries are not always repeated. Each block holds one molecule with its values, some of them ahead of it.

Columns and labels:
[1] = biological target: 6xHis-Rdh54T851AS852A-mCherry (S. cerevisiae); assay: single-molecule fluorescence intensity of clusters (TIRF, DNA curtains); Rdh54-mCherry clusters bound to dsDNA; background-subtracted cluster intensity divided by the mean intensity drop of one fluorophore; estimated molecules per cluster
[2] = biological target: 6xHis-Rdh54S852A-mCherry (S. cerevisiae); assay: single-molecule fluorescence intensity of clusters (TIRF, DNA curtains); as the cluster size estimate, but 1 nM Rdh54-mCherry mixed with 0.1 or 10 nM GFP-Rad53 or 10 nM GFP-Rad53D339A before injection onto dsDNA curtains
[3] = biological target: 6xHis-Rdh54S852A-mCherry (S. cerevisiae); assay: single-molecule fluorescence intensity of clusters (TIRF, DNA curtains); Rdh54-mCherry clusters bound to dsDNA; background-subtracted cluster intensity divided by the mean intensity drop of one fluorophore; estimated molecules per cluster
[4] = biological target: 6xHis-Rdh54T851A-mCherry (S. cerevisiae); assay: single-molecule fluorescence intensity of clusters (TIRF, DNA curtains); as the cluster size estimate, but 1 nM Rdh54-mCherry mixed with 0.1 or 10 nM GFP-Rad53 or 10 nM GFP-Rad53D339A before injection onto dsDNA curtains
[5] = biological target: 6xHis-Rdh54-mCherry (S. cerevisiae) (UniProt P38086)
[6] = biological target: the molecule itself; assay: single-molecule photobleaching step counting (TIRF, DNA curtains); Rdh54-mCherry bound to double-tethered lambda dsDNA; 561 nm laser unshuttered at 25% power, 200 ms integration; steps counted for smaller groups

median estimated molecules per cluster (molecules per cluster) [1]: 5.1
Molecule: 6xHis-Rdh54T851AS852A-mCherry (natural protein)

median estimated molecules per cluster with 10 nM GFP-Rad53 (molecules per cluster) [2]: 5.7
median estimated molecules per cluster (molecules per cluster) [3]: 4.22
Molecule: 6xHis-Rdh54S852A-mCherry (natural protein)

median estimated molecules per cluster with 10 nM GFP-Rad53 (molecules per cluster) [4]: 12.1
Molecule: 6xHis-Rdh54T851A-mCherry (natural protein)

Molecule: 6xHis-Rdh54T851A (unlabeled) (natural protein)
translocation rate on dsDNA of WT Rdh54 mixed with equimolar unlabeled Rdh54T851A (translocase poisoning) [5]: 23 bp/s

B1: 6xHis-Rdh54-mCherry (natural protein, S. cerevisiae, UniProt P38086 35-958, looked up)
chain: MQIPKYENKPFKPPRRVGSNKYTQLKPTATAVTTAPISKAKVTVNLKRSISAGPTLNLAKKPNNLSSNENTRYFTIMYRKPTTKKHKTWSGDGYATLKASSDKLCFYNEAGKFLGSSMLPSDSDSLFETLFKAGSNEVQLDYELKENAEIRSAKEALSQNMGNPSPPTTSTTETVPSTKNDGGKYQMPLSQLFSLNTVKRFKSVTKQTNEHMTTVPKTSQNSKAKKYYPVFDVNKIDNPIVMNKNAAAEVDVIVDPLLGKFLRPHQREGVKFMYDCLMGLARPTIENPDIDCTTKSLVLENDSDISGCLLADDMGLGKTLMSITLIWTLIRQTPFASKVSCSQSGIPLTGLCKKILVVCPVTLIGNWKREFGKWLNLSRIGVLTLSSRNSPDMDKMAVRNFLKVQRTYQVLIIGYEKLLSVSEELEKNKHLIDMLVCDEGHRLKNGASKILNTLKSLDIRRKLLLTGTPIQNDLNEFFTIIDFINPGILGSFASFKRRFIIPITRARDTANRYNEELLEKGEERSKEMIEITKRFILRRTNAILEKYLPPKTDIILFCKPYSQQILAFKDILQGARLDFGQLTFSSSLGLITLLKKVCNSPGLVGSDPYYKSHIKDTQSQDSYSRSLNSGKLKVLMTLLEGIRKGTKEKVVVVSNYTQTLDIIENLMNMAGMSHCRLDGSIPAKQRDSIVTSFNRNPAIFGFLLSAKSGGVGLNLVGASRLILFDNDWNPSVDLQAMSRIHRDGQKKPCFIYRLVTTGCIDEKILQRQLMKNSLSQKFLGDSEMRNKESSNDDLFNKEDLKDLFSVHTDTKSNTHDLICSCDGLGEEIEYPETNQQQNTVELRKRSTTTWTSALDLQKKMNEAATNDDAKKSQYIRQCLVHYKHIDPARQDELFDEVITDSFTELKDSITFAFVKPGEICLREQ
notes: Rdh54, S. cerevisiae DNA translocase; Name printed as 6xHis-Rdh54-mCherry, plasmid pET15-6xHis-Rdh54; also called WT-Rdh54; WT; source: E. coli Rosetta 2 BL21 (DE3), purified (Ni-NTA, SP cation exchange, S300 SEC)
stoichiometry N [6]: 2 and 4 and 3
